Read-outs that look alike come from different tables or passages of the source.
Experiments:
[1] = target: corresponding proteinases (proteinase of the comparative inhibition assay, not named); experiment: cell-based or functional assay
papain [2] = target: T1, papain (UniProt P00784 134-345); experiment: proteinase inhibition assay (Barrett), Ki calculated as by Abe et al.
T1 sequence (looked up): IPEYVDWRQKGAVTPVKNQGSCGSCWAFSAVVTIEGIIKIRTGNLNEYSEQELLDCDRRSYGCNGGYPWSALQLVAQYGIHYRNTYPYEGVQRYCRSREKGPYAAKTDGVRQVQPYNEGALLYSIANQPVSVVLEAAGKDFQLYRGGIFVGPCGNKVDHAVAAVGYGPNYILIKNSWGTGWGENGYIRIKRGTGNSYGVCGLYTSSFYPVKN
Description: (§1) To determine the Ki of cystatins biochemical assays were performed according to the procedure of Barrett (7) and Ki values were calculated as described by Abe et al. (3)

[3] = target: T2, C. elegans cysteine proteinase gcp-1, expressed and purified from E. coli (Caenorhabditis elegans, UniProt P25807 85-329, limits assumed); experiment: as above
T2 construct: also called gcp-I; glp-1
T2 sequence (looked up): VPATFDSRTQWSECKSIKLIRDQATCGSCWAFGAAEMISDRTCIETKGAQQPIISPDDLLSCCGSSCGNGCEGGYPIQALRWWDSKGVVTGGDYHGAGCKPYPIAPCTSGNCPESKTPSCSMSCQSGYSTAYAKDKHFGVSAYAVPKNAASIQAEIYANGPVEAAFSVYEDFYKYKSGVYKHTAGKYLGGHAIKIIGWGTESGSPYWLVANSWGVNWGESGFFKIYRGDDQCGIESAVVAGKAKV
Description: as §1

[4] = target: corresponding proteinases (proteinase of the comparative inhibition assay, not named); experiment: cell-based or functional assay; remark: listed apart in the source
papain [5] = target: T1, papain; experiment: proteinase inhibition assay, Ki
[6] = target: T2, C. elegans cysteine proteinase gcp-1, …; experiment: proteinase inhibition assay, Ki

Chicken egg white cystatin (CEWC) (from UniProt P01038 24-139)
relative percentage inhibition [1]: 100%

OC-NTERM1-15QVLSG40-63CTERM97-116 (hybrid of Oc-I with three CEWC regions) (from UniProt P09229 56-77; P09229 102-123)
relative percentage inhibition [1]: 90%

B1: Oryzacystatin I (Oc-I), wild type, expressed from pQE30 in E. coli (other, Oryza sativa L. japonica)
chain: HHHHHHMSSDGGPVLGGVEPVGNENDLHLVDLARFAVTEHNKKANSLLEFEKLVSVKQQVVAGTLYYFTIEVKEGDAKKLYEAKVWEKPWMDFKELQEFKPVDASANA
notes: the present UniProt entry may carry a longer N-terminus, so the numbering must be checked; also called Oryzacystatin Oc-I; native Oc-I
Ki (papain [2]): 7 nM
Ki [3]: 8 nM
relative percentage inhibition [4]: 60%

B2: Oc-IdeltaD86 (Oryzacystatin I with aspartic acid 86 deleted) (other)
chain: HHHHHHMSSDGGPVLGGVEPVGNENDLHLVDLARFAVTEHNKKANSLLEFEKLVSVKQQVVAGTLYYFTIEVKEGDAKKLYEAKVWEKPWMFKELQEFKPVDASANA
Ki (papain [2]): 0.5 nM
Ki [3]: 0.6 nM
relative percentage inhibition [1]: 88%
fold lowering of Ki against wild type Oc-I (papain [5]): ~13 fold
fold lowering of Ki against wild type Oc-I [6]: ~13 fold

B3: Oc-I with deletion of residue M85 (other)
chain: HHHHHHMSSDGGPVLGGVEPVGNENDLHLVDLARFAVTEHNKKANSLLEFEKLVSVKQQVVAGTLYYFTIEVKEGDAKKLYEAKVWEKPWDFKELQEFKPVDASANA
Ki [3]: 7.1 nM

Reference: US6680424 (UNIVERSITY OF LEEDS, dated 2004)
